Measurements taken from PMC5529588.

Assays:
[1] = biological target: microtubules (porcine brain tubulin, taxol-stabilized) (porcine) (UniProt P02550); experiment: co-sedimentation; high-speed cosedimentation; 1 uM tubulin (MTs) with 1-12 uM FH1FH2; bound against free protein fitted with a hyperbolic function; methods in the supplement
[2] = biological target: actin filaments (rabbit muscle actin, polymerized) (rabbit) (UniProt P68135); experiment: co-sedimentation; high-speed cosedimentation; 3 uM actin (AFs) with 0.25-8 uM FH1FH2; bound against free protein fitted with a hyperbolic function; three independent experiments; methods in the supplement

Sequence of OsFH15 FH2 (truncated recombinant protein containing the FH2 domain of OsFH15) (Q69MT2 340-768): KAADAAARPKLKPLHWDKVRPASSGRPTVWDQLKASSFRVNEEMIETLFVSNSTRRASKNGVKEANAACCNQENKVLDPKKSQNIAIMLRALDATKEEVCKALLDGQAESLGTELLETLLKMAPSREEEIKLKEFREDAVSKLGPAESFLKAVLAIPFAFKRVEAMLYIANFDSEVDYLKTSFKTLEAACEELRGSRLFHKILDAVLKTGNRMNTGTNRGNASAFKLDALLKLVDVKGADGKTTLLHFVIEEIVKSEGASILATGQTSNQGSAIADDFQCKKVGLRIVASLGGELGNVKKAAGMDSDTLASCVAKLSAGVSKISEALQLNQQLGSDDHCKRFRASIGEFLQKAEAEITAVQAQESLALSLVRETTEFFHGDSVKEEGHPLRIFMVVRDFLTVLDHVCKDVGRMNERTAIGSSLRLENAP

Kd [1] [nM] | Kd [2] [nM] | Substance
1020 | 820 | OsFH15 FH1FH2 (truncated recombinant protein containing the FH1FH2 domain of OsFH15) (domain or fragment)
1810 |  | OsFH15 FH2 (truncated recombinant protein containing the FH2 domain of OsFH15) (from UniProt Q69MT2 340-768) (domain or fragment)
